# Assay results taken from patent publication US20170320965A1, “PAN-REACTIVE ANTIBODIES TO DUOCARMYCINS” (SYNTHON BIOPHARMACEUTICALS B.V., priority 2014, published 2017).
# B1: A-15-5-4: monoclonal, pan-reactive anti-duocarmycin antibody derived from hapten A; VH/VL SEQ ID NO:1 and 2 (antibody, listed as Mus musculus, V domains shown)
# VH: QVQLQQPGAELVKPGASVKLPCKASGYTFISYYMYWVKQRPGQGLEWIGVINPSNGGTTFNEKFKNKATLTVDKSSSTAYLQLSSLTSEDSAVYYCTCLNYYGSSYWYFDVWGAGTTVTVSS
# VL: DVVMTQTPLSLPVSLGDQASIFCRSSQSLVHSDGNTYLHWYLQKPGQSPKLLIYTVSNRFSGVPDRFSGSGSGTDFTLKISRVEAEDLGVYFCSQSTHVPWTFGGGTTLEIK
# B2: B-6-2-10: monoclonal, pan-reactive anti-duocarmycin antibody derived from hapten B; VH/VL SEQ ID NO:3 and 4 (antibody, listed as Mus musculus, V domains shown)
# VH: DVKLVESGGGLVKPGGSLKLSCAASGFTFRTYTMSWVRQTPEKRLEWVATISSGGSYTYYPDSMKGRFTISRDNAKNTLYLQMSSLKSEDTAMYYCTRGPFYDVYYFLFAYWGQGTLVTVSA
# VL: QAVVTQESALTTSPGETVTLTCRSSIGAVTTTNYANWVQEKPDHLFTGLIGGTNNRAPGVPARFSGSLIGDKAALTITGAQTEDEAIYFCALWYSNHWVFGGGTKLTVL
# B3: C-16-1-7: monoclonal, pan-reactive anti-duocarmycin antibody derived from hapten C; VH/VL SEQ ID NO:5 and 6 (antibody, listed as Mus musculus, V domains shown)
# VH: EVKLVESGGGLVKPGGSLKVSCAASGFTFSSYAMSWVRQIPDKRLEWVASISTGGITYYLDGVKGRFTISRDNARNILYLQMSSLRSEDTAIYYCARWSYAMDYWGQGTSVTVSS
# VL: QIVLTQSPAIMSASLGERVTMTCTASSSVSSSYLHWYQQKPGSSPKVWIYSTSNLASGVPARFRGSGSGTSYSLTISSMEAEDAATYYCHQYHRSPPTFGGGTKLEIK
# Tested on: panel of 18 different duocarmycin-containing antibody-drug conjugates having a common DNA alkylating moiety
# Assay: BIA (Biomolecular Interaction Analysis) assay, surface plasmon resonance, second screening for pan-reactive antibodies
# Type: binding
# Details: anti-hapten mAb captured on polyclonal anti-mouse surface; ADCs 1 to 18 of FIG. 2 injected sequentially, approx. 20 μg/mL, 25° C.
# Source text: The samples of the supernatant culture fluid are screened with a suitable assay for the selection of pan-reactive antibodies reactive to the antigen. Suitable immunoassays are well known and may be readily determined by the person skilled in the art. A preferred immuno-assay is the Biomolecular Interaction Analysis (BIA) assay in which the sensor chip surface is modified by immobilization of polyclonal anti-mouse which results in a surface that can bind any mouse monoclonal antibodies.
# In a specific embodiment of the present invention, the BIA assay is performed using an anti-hapten A, B or C monoclonal antibody captured on a polyclonal anti-mouse surface to a high binding level (capture reagent). Subsequently, a panel of duocarmycin-containing antibody-drug conjugates is injected sequentially and the signal (RU, resonance or responsive units) indicating binding is recorded. The panel of duocarmycin derivatives contain the same DNA alkylating moiety as a common structural moiety (as shown hereinabove), but have a different DNA binding moiety, and/or linker, and/or antibody. Monoclonal, pan-reactive antibodies are selected based on surface plasmon resonance (SPR), which response is directly proportional to the mass increase on the surface. An increase in mass on the surface is a positive binding reaction. Those antibodies binding to at least 3, preferably at least 5, more preferably at least 10, even more preferably at least 15, most preferably at least 18 different duocarmycin-containing antibody-drug conjugates having the same DNA alkylating moiety described hereinabove, are selected as pan-reactive antibodies in accordance with the present invention.
# The BIA (Biomolecular Interaction Analysis) assay was used for the selection of monoclonal, pan-reactive antibodies. One flow cell on a CMS sensor chip was immobilized by amine coupling with polyclonal anti-mouse to a level of approx. 16,000 RU. […]
row,Molecule,binding to a panel of 18 different duocarmycin-containing antibody-drug conjugates
1,B1,show binding
2,B2,show binding
3,B3,show binding
